# Data from patent publication US20170166895.
# Experiments:
# [1] = target: T1, Complement component 3 (C3) (Homo sapiens) (UniProt P01024+P01024); assay: filter; conditions: 3'-3' idT
# [2] = target: T1, Complement component 3 (C3) (Homo sapiens); assay: inhibition; conditions: P = NapdU (all U); 2'-OMe at 1,2,3,5,7,10,13,26,27,28; 3'-3' idT; hemolysis, 20 nM C3, GVB++, 37 C
# [3] = all U in listing = NapdU, SB18T0.01, 37C
# [4] = all U = NapdU, T = dT, SB18T0.01, 37C
# T1 sequence (P01024 23-667, chain 1 of 2): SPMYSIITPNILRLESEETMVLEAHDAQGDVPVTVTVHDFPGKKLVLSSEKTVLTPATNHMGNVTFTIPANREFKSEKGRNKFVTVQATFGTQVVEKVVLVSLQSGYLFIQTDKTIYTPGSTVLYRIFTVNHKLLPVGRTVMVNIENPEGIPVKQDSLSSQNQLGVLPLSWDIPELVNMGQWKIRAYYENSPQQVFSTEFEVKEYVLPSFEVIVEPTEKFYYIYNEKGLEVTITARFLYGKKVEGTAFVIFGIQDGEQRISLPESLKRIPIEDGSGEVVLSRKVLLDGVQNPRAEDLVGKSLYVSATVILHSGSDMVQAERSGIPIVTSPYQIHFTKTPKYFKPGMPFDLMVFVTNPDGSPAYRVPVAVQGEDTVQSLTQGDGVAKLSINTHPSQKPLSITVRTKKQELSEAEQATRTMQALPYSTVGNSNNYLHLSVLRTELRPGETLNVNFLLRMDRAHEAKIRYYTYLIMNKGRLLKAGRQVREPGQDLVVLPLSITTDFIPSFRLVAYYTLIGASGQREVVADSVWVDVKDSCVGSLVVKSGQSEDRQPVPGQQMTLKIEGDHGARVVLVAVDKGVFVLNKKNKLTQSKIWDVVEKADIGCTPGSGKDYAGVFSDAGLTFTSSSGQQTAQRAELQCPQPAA
# T1 sequence (P01024 672-1663, chain 2 of 2): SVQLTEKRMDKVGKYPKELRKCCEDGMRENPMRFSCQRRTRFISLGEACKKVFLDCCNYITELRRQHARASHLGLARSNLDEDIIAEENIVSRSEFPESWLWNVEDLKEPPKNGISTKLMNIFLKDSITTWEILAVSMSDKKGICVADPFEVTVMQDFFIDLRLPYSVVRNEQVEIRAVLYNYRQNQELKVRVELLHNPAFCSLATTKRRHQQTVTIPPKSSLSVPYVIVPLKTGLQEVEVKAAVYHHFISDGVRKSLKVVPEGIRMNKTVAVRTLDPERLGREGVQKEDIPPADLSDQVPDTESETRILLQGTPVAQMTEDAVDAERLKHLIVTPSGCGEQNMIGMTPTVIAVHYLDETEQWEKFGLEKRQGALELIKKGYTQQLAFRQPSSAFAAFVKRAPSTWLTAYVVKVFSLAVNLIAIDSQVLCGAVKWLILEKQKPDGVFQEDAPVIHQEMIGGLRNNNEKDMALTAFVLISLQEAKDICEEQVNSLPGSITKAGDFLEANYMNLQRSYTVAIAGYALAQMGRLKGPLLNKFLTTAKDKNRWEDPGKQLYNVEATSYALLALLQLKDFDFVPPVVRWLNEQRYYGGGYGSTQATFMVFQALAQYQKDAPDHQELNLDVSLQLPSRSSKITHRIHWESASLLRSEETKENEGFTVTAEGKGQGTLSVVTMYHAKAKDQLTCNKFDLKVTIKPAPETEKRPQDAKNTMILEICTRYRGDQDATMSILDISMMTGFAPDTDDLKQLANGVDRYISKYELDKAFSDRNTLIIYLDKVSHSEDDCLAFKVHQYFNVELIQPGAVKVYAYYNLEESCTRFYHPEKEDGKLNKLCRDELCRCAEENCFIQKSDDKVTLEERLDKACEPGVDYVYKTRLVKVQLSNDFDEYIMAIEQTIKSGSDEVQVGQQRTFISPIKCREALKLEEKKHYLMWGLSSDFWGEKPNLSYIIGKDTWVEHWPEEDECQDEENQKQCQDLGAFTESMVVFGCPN
sequence,measurement,setting,value
CGGUGACUCAAUAGUCCGUACGUUCCCG [8491-94_90],Kd,"[1]; all U = NapdU, 2'-OMe at 1,2,3,5,7,10,13,26,27,28, SB18T0.01, 37C",0.00424 nM
same,IC50,[2],18.9 nM
ACTCCGAGCAUUGACUCAAUAGUCCGUACGUUUUACGCGUGAGGA [8491-407_3],Kd,[1]; [3],0.208 nM
CGGUGACUUAGUCCGUACGUUCCCG [8491-94_57],Kd,"[1]; all U = NapdU, hexaethylene glycol (Heg) replaces C9-A10-A11, SB18T0.01, 37C",0.245 nM
CGGUGACUCAAUAGUCCGUACGUUCCCG [8491-94_73],Kd,"[1]; all U = NapdU, 2'-OMe at NapdU15, SB18T0.01, 37C",1.32 nM
CGGUGACUCAAUAGUCCGUACGUUCCCG [8491-94_86],Kd,"[1]; P = NapdU (all U), 2'-OMe G28, SB18T0.01, 5 mM MgCl2, 37 C",0.0344 nM
CGGUGACUCAAUAGUCCGUACGUUCCCG [8491-94_76],Kd,"[1]; all U = NapdU, 2'-OMe at G18, SB18T0.01, 37C",0.93 nM
CGGUGACUCAAUAGUCCGUACGUUCCCG [8491-94_78],Kd,"[1]; P = NapdU (all U), 2'-OMe A20, SB18T0.01, 5 mM MgCl2, 37 C",0.0718 nM
CGGUGACUCAAUAGUCCGUACGUUCCCG [8491-94_71],Kd,"[1]; P = NapdU (all U), 2'-OMe A13, SB18T0.01, 5 mM MgCl2, 37 C",0.0256 nM
CGGUGACUCAAUAGUCCGUACGUUCCG [8491-94_87],Kd,"[1]; all U = NapdU, SB18T0.01, 37C",0.154 nM
ACTCCCUUAAAAGGGUCGUUGACUCCAUAGUCCGUACGUUUCCGAGAGGA [8491-394_3],Kd,[1]; [3],0.448 nM
CGGUGAUCAAUAGUCGUACGUUCCG [8491-94_102],Kd,"[1]; all U = NapdU, 2'-OMe at 1,2,3,5,10,13,26,27,28, C3-spacer replaces C7, C17, C25, SB18T0.01, 37C",0.0603 nM
CGGUGACUCAAUAGUCCGUACGUUCCCG [8491-94_64],Kd,"[1]; all U = NapdU, 2'-OMe at A6, SB18T0.01, 37C",0.512 nM
ACTCCCAAGCCUCUCGGUUUGGCUAAAUAGUCCGUACGUUUUCACGAGGA [8491-408_3],Kd,[1]; [3],0.161 nM
CGGUGACUCAAUAGUCCGUACGUUCCCG [8491-94_68],Kd,"[1]; P = NapdU (all U), 2'-OMe A10, SB18T0.01, 5 mM MgCl2, 37 C",0.0424 nM
CCGGUGACUCAAUAGUCCGUACGUUCCCG [8491-94_51],Kd,"[1]; all U = NapdU, C3-spacer replaces G29, SB18T0.01, 37C",0.227 nM
CGGUGACUCAAUAGUCCGUACGUUCCCG [8491-94_94],Kd,"[1]; all U = NapdU, 2'-OMe at 1,2,3,5,7,10,13,19,23-28, SB18T0.01, 37C",0.0557 nM
CGGUGAUCAAUAGUCGUACGUUCCG [8491-94_54],Kd,"[1]; all U = NapdU, C3-spacer replaces C7, C17, C25, SB18T0.01, 37C",0.0221 nM
CGGUGACUCAAUAGUCCGUACGUUCCCG [8491-94_62],Kd,"[1]; P = NapdU (all U), 2'-OMe P4, SB18T0.01, 5 mM MgCl2, 37 C",0.0918 nM
CGGUGACUCAAUAGUCGUACGUUCCG [8491-94_56],Kd,"[1]; all U = NapdU, C3-spacer replaces C17, C25, SB18T0.01, 37C",0.0464 nM
CGGUGAUCAAUAGUCGUACGUUCCG [8491-94_100],Kd,"[1]; all U = NapdU, 2'-OMe at 1,2,3,5,9,10,13,19,20,22,23,24,26,27,28, C3-spacer replaces C7, C17, C25, SB18T0.01, 37C",0.0794 nM
UGACUCAAUAGUCCGUACGUUCCCGGUCCGAACGCGGAGGA [8491-94_10],Kd,"[1]; all U = NapdU, SB18T0.01, 37C",7.6 nM
CGGUGACUCAAUAGUCCGUACGUUCCCG [8491-94_83],Kd,"[1]; P = NapdU (all U), 2'-OMe C25, SB18T0.01, 5 mM MgCl2, 37 C",0.0488 nM
CCGGUGACUAAUAGUCCGUACGUUCCCGG [8491-94_37],Kd,"[1]; all U = NapdU, C3-spacer replaces C10, SB18T0.01, 37C",0.0922 nM
CGGUGACUCAAUAGUCCGUACGUUCCCGG [8491-94_30],Kd,"[1]; all U = NapdU, C3-spacer replaces C1, SB18T0.01, 37C",0.0622 nM
CCGGUGACUCAAUAGUCCUACGUUCCCGG [8491-94_44],Kd,"[1]; all U = NapdU, C3-spacer replaces G19, SB18T0.01, 37C",1.28 nM
ACTCCCCGGUGACUCAAUAGUCCGUACGUUCCCGGUCCGAACGCGGAGGA [8491-94_3],Kd,"[1]; all U in listing = NapdU, SB18T0.01 (5 mM MgCl2), 37C",0.0313 nM
CGGUGACUCAAUAGUCCGUACGUUCCCG [8491-94_93],Kd,"[1]; all U = NapdU, 2'-OMe at 1,2,3,5,7,10,13,19,23,24,26,27,28, SB18T0.01, 37C",0.0152 nM
CGGUGACUCAAUAGUCCGUACGUUCCCG [8491-94_63],Kd,"[1]; P = NapdU (all U), 2'-OMe G5, SB18T0.01, 5 mM MgCl2, 37 C",0.0268 nM
ACTCCAUGUCGGCGUUUGACUCAAUAGUCCGUACGUUUGGCCGGGCAGGGGAGGA [8491-405_3],Kd,[1]; [3],0.159 nM
GGGUGACUCAAUAGUCCGUACAUUCCCC [8491-94_135],Kd,"[1]; all P = NapdU, 2'-OMe at 1,2,3,5,7,9,10,13,19,20,22-28, SB18T0.01, 37C",15.3 nM
ACTCCGAGCUUUUUUGACUCAAUUAGUCCGUACGUUUUUUGGCCGGGCAGGGGAGGA [8491-404_3],Kd,[1]; [3],0.185 nM
ACTCCCCGGUGACUCAAUAGUCCGUACGUUCCCGGUCCGAA [8491-94_6],Kd,"[1]; all U = NapdU, SB18T0.01, 37C",0.019 nM
CCGGUGACUCAAUAGUCCGUACGUUCCGG [8491-94_49],Kd,"[1]; all U = NapdU, C3-spacer replaces C27, SB18T0.01, 37C",0.266 nM
TGGUGACUCAAUAGUCCGUATGUUCCCA [8491-94_130],Kd,"[1]; all P = NapdU, T = dT, 2'-OMe at 2,3,5,7,9,10,13,19,20,22-28, SB18T0.01, 37C",17.9 nM
GGGUGACUCAAUAGUCGUACAUUCCCC [8491-94_136],Kd,"[1]; all P = NapdU, 2'-OMe at 1,2,3,5,7,9,10,13,19,20,22-28, C3-spacer replaces C17, SB18T0.01, 37C",9.1 nM
ACTCCGAGCAUUGACUCAAUAGUCCGUACGUUCCCGGUCUGAACGUGGAGGA [8491-406_3],Kd,[1]; [3],2.47 nM
ACTCCGAGCAUUGACUCAAUAGUCCGUACGUUUUUUUGGGCCGGGGGGGCAGGAGGA [8491-403_3],Kd,"[1]; all U in listing = NapdU, printed as 1.53-10, SB18T0.01, 37C",0.153 nM
CGGUGACUCAAUAGUCCGUACGUUCCCG [8491-94_81],Kd,"[1]; P = NapdU (all U), 2'-OMe P23, SB18T0.01, 5 mM MgCl2, 37 C",0.0243 nM
ACTCCCCGGUGACUCAAUAGUCCGUACGUUUGGCCGGGCAGGGGAGGA [8491-395_3],Kd,[1]; [3],3.52 nM
CCGGUGACUCAAUAGUCCGUACGUUCCGG [8491-94_48],Kd,"[1]; all U = NapdU, C3-spacer replaces C26, SB18T0.01, 37C",0.0302 nM
CCGGUGACUCAAUAUCCGUACGUUCCCGG [8491-94_41],Kd,"[1]; all U = NapdU, C3-spacer replaces G15, SB18T0.01, 37C",0.598 nM
CGGUGACUCAAUAGUCCGUACGUUCCCG [8491-94_72],Kd,"[1]; all U = NapdU, 2'-OMe at G14, SB18T0.01, 37C",6.17 nM
CGGUGACUCAAUAGUCCGUACGUUCCCG [8491-94_66],Kd,"[1]; all U = NapdU, 2'-OMe at NapdU8, SB18T0.01, 37C",0.149 nM
CGGUGACUCAAUAGUCCGUACGUUCCCG [8491-94_79],Kd,"[1]; P = NapdU (all U), 2'-OMe C21, SB18T0.01, 5 mM MgCl2, 37 C",0.273 nM
ACTCCCUAACACGGCCGAGUUGACUCCCAUAGUCCGUACGUUUGCGAGGA [8491-387_3],Kd,[1]; [3],0.519 nM
ACTCCAGACUGUAGUUGACUCCAUAGUCCGUACGUUUACACAUUGGAGGA [8491-189_3],Kd,[1]; [3],0.0335 nM
ACTCCUGUUGACUCACAUAGUCCGUACGUUUACGGCAAUAGCACAGAGGA [8491-396_3],Kd,[1]; [3],0.311 nM
ACTCCCCGGUGACUCAAUAGUCCGUACGUTCCCGGUCCGAACGCGGAGGA [8491-94_17],Kd,[1]; [4],2.88 nM
CGGUGAUAAUAGUCGUACGUUCCG [8491-94_55],Kd,"[1]; all U = NapdU, C3-spacer replaces C7, C9, C17, C25, SB18T0.01, 37C",0.0415 nM
CCGGUGACUCAAUAGUCGUACGUUCCCGG [8491-94_42],Kd,"[1]; all U = NapdU, C3-spacer replaces C17, SB18T0.01, 37C",0.86 nM
CGGUGACUCAAUAGUCCGUATGUUCCCG [8491-94_132],Kd,"[1]; all P = NapdU, T = dT, 2'-OMe at 1,2,3,5,7,9,10,13,19,20,22-28, SB18T0.01, 37C",12.7 nM
ACTCCCCGGUGACTCAAUAGUCCGUACGUUCCCGGUCCGAACGCGGAGGA [8491-94_12],Kd,[1]; [4],8.57 nM
ACTCCCCGGUGACUCAAUAGUCCGUACGUUCC [8491-94_20],Kd,"[1]; all U = NapdU, SB18T0.01, 37C",1.14 nM
CCGGUGAUCAAUAGUCCGUACGUUCCCGG [8491-94_36],Kd,"[1]; all U = NapdU, C3-spacer replaces C8, SB18T0.01, 37C",0.0315 nM
ACTCCCCGGUGACUCAATAGUCCGUACGUUCCCGGUCCGAACGCGGAGGA [8491-94_13],Kd,[1]; [4],41.7 nM
CGGUGACUCAAUAGUCCGUACGUUCCCG [8491-94_69],Kd,"[1]; P = NapdU (all U), 2'-OMe A11, SB18T0.01, 5 mM MgCl2, 37 C",0.272 nM
CGGUGACUCAAUAGUCGUACGUUCCG [8491-94_99],Kd,"[1]; all U = NapdU, 2'-OMe at 1,2,3,5,7,9,10,13,19,20,22,23,24,26,27,28, C3-spacer replaces C17, C25, SB18T0.01, 37C",0.167 nM
ACTCCUUGACUCGAUAGUCCGUACGUUUGCGGAAUACCAGCUGACGAGGA [8491-400_3],Kd,[1]; [3],1.2 nM
ACTCCGAGCAUUGACUCAAUAGUCCGUACGUUUGGCCCGUUCACAAGGAGGA [8491-393_3],Kd,[1]; [3],0.25 nM
ACTCCCCGGUGACUCAAUAGUCCGUACGUUCCCGGUCCGAACGCGGA [8491-94_4],Kd,"[1]; all U = NapdU, SB18T0.01, 37C",0.0291 nM
ACTCCGAGCAUUGACUCAAUAGUCCGUACGUUUUUGACCGGGGCAGGGGGAGGA [8491-385_3],Kd,"[1]; all U in listing = NapdU, printed as 1.46-10, SB18T0.01, 37C",0.146 nM
CCGGUGACUCAAUAGUCCGUACGUUCCCG [8491-94_52],Kd,"[1]; all U = NapdU, C3-spacer replaces G30, SB18T0.01, 37C",0.0504 nM
